Test results as given in patent US10973880B2, “Compositions and methods for treating pulmonary hypertension” (Acceleron Pharma Inc., priority 2016, dated 2021).

Assays:
GDF11 [1] = molecular target: T1, GDF11 (Homo sapiens, UniProt O95390); experiment: A-204 reporter gene assay, pGL3(CAGA)12 luciferase; type: cell-based; conditions: Example 13
T1 sequence (O95390 299-407): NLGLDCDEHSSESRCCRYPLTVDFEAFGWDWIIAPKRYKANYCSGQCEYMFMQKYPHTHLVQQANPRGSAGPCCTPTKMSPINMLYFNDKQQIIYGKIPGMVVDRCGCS
Text: Day 1: Split A-204 cells into 48-well plate. […]
(§1) In addition, an A-204 Reporter Gene Assay was used to evaluate the effects of ALK4-Fc:ActRIIB-Fc heterodimer and ActRIIB-Fc:ActRIIB-Fc homodimer on signaling by activin A, activin B, GDF11, GDF8, BMP10, and BMP9. Cell line: Human Rhabdomyosarcoma (derived from muscle). Reporter vector: pGL3(CAGA)12 (as described in Dennler et al, 1998, EMBO 17: 3091-3100). The CAGA12 motif is present in TGFβ responsive genes (PAI-1 gene), so this vector is of general use for factors signaling through Smad2 and 3. An exemplary A-204 Reporter Gene Assay is outlined below. • Day 1: Split A-204 cells into 48-well plate. • Day 2: A-204 cells transfected with 10 ug pGL3(CAGA)12 or pGL3(CAGA)12(10 ug)+pRLCMV (1 ug) and Fugene. • Day 3: Add factors (diluted into medium+0.1% BSA). Inhibitors need to be pre-incubated with Factors for about one hr before adding to cells. About six hrs later, cells are rinsed with PBS and then lysed.
(§2) Following the above steps, a Luciferase assay was performed.

BMP6 = molecular target: T2, BMP6 (Homo sapiens, UniProt P22004); experiment: Biacore-based binding assay, receptor captured with anti-Fc antibody
T2 sequence (P22004 375-513): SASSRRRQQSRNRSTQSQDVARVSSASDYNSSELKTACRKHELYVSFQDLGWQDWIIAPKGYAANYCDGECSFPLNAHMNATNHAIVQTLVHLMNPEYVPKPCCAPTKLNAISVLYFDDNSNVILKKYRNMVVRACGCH
Experimental: (§3) A Biacore™-based binding assay was used to compare ligand binding selectivity of the ALK4-Fc:ActRIIB-Fc heterodimeric complex described above with that of ActRIIB-Fc and ALK4-Fc homodimer complexes. The ALK4-Fc:ActRIIB-Fc heterodimer, ActRIIB-Fc homodimer, and ALK4-Fc homodimer were independently captured onto the system using an anti-Fc antibody. Ligands were injected and allowed to flow over the captured receptor protein. Results are summarized in the table below, in which ligand off-rates (kd) most indicative of effective ligand traps are denoted in bold font.

GDF11 [2] = molecular target: T1, GDF11; experiment: as above
Experimental: as §3

activin B [3] = molecular target: T3, activin B (Homo sapiens, UniProt P09529); experiment: as above
T3 sequence (P09529 293-407): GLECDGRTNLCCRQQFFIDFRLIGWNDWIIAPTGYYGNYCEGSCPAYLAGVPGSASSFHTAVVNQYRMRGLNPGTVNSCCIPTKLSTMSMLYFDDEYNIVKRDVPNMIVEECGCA
Experimental: as §3

activin A = molecular target: T4, activin A (Homo sapiens, UniProt P08476); experiment: as above
T4 sequence (P08476 311-426): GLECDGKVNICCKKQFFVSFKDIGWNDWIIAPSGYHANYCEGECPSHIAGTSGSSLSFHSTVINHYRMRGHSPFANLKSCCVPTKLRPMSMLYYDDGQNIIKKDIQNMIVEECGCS
Experimental: as §3

GDF3 = molecular target: T5, GDF3 (Homo sapiens, UniProt Q9NR23); experiment: as above
T5 sequence (Q9NR23 251-364): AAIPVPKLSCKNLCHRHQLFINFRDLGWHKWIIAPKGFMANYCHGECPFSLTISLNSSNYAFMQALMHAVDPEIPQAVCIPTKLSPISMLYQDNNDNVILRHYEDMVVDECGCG
Experimental: as §3

BMP10 [4] = molecular target: T6, BMP10 (Homo sapiens, UniProt O95393); experiment: as above
T6 sequence (O95393 317-424): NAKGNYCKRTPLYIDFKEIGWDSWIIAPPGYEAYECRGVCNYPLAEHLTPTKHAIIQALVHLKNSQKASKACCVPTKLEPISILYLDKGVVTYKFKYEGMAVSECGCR
Experimental: as §3

GDF8 = molecular target: T7, GDF8 (Homo sapiens, UniProt O14793); experiment: as above
T7 sequence (O14793 267-375): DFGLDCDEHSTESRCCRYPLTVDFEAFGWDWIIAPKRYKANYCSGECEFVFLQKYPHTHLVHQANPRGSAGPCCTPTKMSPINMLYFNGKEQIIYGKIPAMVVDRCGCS
Experimental: as §3

BMP9 [5] = molecular target: T8, BMP9 (Homo sapiens, UniProt Q9UK05); experiment: as above
T8 sequence (Q9UK05 320-429): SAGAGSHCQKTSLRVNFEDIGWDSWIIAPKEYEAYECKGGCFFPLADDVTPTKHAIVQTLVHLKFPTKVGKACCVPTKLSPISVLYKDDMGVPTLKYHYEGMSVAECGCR
Experimental: as §3

activin B [6] = molecular target: T3, activin B; experiment: A-204 reporter gene assay, pGL3(CAGA)12 luciferase; type: cell-based; design: host or cells: exogenous factor added to A-204 cells (human rhabdomyosarcoma); conditions: Example 13
Text: as §1, §2

BMP10 [7] = molecular target: T6, BMP10; experiment: A-204 reporter gene assay, pGL3(CAGA)12 luciferase; type: cell-based; design: host or cells: exogenous factor added to A-204 cells (human rhabdomyosarcoma); conditions: Example 13
Text: as §1, §2

BMP9 [8] = molecular target: T8, BMP9; experiment: A-204 reporter gene assay, pGL3(CAGA)12 luciferase; type: cell-based; design: host or cells: exogenous factor added to A-204 cells (human rhabdomyosarcoma); conditions: Example 13
Text: as §1, §2

B1: ALK4-Fc:ActRIIB-Fc heterodimer: heteromeric complex of extracellular domains of human ActRIIB and human ALK4, each separately fused to an Fc domain with a linker (protein)
chain 1: SGPRGVQALLCACTSCLQANYTCETDGACMVSIFNLDGMEHHVRTCIPKVELVPAGKPFYCLSSEDLRNTHCCYTDYCNRIDLRVPSGHLKEPEHPSMWGPVE
chain 2: GRGEAETRECIYYNANWELERTNQSGLERCEGEQDKRLHCYASWRNSSGTIELVKKGCWLDDFNCYDRQECVATEENPQVYFCCCEGNFCNERFTHLPEAGGPEVTYEPPPTAPT
modifications: left off: a dimerising Fc or GST; small tags and cut ends
notes: heteromeric complex of extracellular domains of human ActRIIB and human ALK4, each separately fused to an Fc domain with a linker
inhibition of GDF11 signaling (GDF11 [1]): potent inhibitors
Kd (BMP6): 2.7 nM
ka, BMP6 (BMP6): 2e+06 M⁻¹ s⁻¹
kd, BMP6 (BMP6): 0.0055 s⁻¹
ka, GDF11 (GDF11 [2]): 3.8e+07 M⁻¹ s⁻¹
kd, GDF11 (GDF11 [2]): 0.00011 s⁻¹
Kd (GDF11 [2]; † = very low signal): 0.003 nM
Kd (activin B [3]): 0.006 nM
ka, Activin B (activin B [3]): 7.1e+06 M⁻¹ s⁻¹
kd, Activin B (activin B [3]): 4e-05 s⁻¹
ka, Activin A (activin A): 1.3e+07 M⁻¹ s⁻¹
kd, Activin A (activin A): 0.00015 s⁻¹
Kd (GDF3): 4.9 nM
ka, GDF3 (GDF3): 3.4e+06 M⁻¹ s⁻¹
kd, GDF3 (GDF3): 0.017 s⁻¹
Kd (BMP10 [4]): 0.074 nM
ka, BMP10 (BMP10 [4]): 5.6e+07 M⁻¹ s⁻¹
kd, BMP10 (BMP10 [4]): 0.0041 s⁻¹
ka, GDF8 (GDF8): 390000 M⁻¹ s⁻¹
kd, GDF8 (GDF8): 0.00021 s⁻¹
Kd (GDF8; † = very low signal): 0.55 nM
Kd (BMP9 [5]): 3.4 nM
ka, BMP9 (BMP9 [5]): Transient*
kd, BMP9 (BMP9 [5]): Transient*
inhibition of activin B signaling (activin B [6]): potent inhibitors
inhibition of BMP10 signaling pathway compared to ActRIIB-Fc:ActRIIB-Fc homodimer (BMP10 [7]): significantly reduced
inhibition of BMP9 signaling pathway compared to ActRIIB-Fc:ActRIIB-Fc homodimer (BMP9 [8]): significantly reduced
